Kd and stoichiometry N data for one substance are collected here from PMC8358021.

For experiment [1], the target named is AbApeO-AbApeC heterodimer (ketosynthase-chain length factor complex of the aryl polyene biosynthesis gene cluster of Acinetobacter baumannii) (Acinetobacter baumannii). The experiment in a line: ITC; 2.0 mM holo ACP1 or holo ACP2 injected (19 injections of 3 µl) into 0.1 mM AbApeO-AbApeC or AbApeR; 25 °C; 40 mM potassium phosphate pH 7.0; 2 mM 2-mercaptoethanol.

Experiment [2] deals with AbApeR (FabB-like homodimeric ketosynthase of the A. baumannii APE gene cluster) (Acinetobacter baumannii). Described as above.

By Kd is commonly meant the concentration at which binding is half-saturated. A word on the stoichiometry N: it is the number of molecules, sites or subunits per partner or assembly.

Regarding “holo ACP1 (ApeE), acyl carrier protein 1 of the A. baumannii APE gene cluster (natural protein)”, the values for the Kd in experiment [1] and in experiment [2] were 0.074 µM and 18 µM, respectively. The stoichiometry N in experiment [1] was 1.63; in experiment [2], 1.55.
